From paper PMC7379572 come the findings set out here.

Experiment in all cases: EMSA
Common to all, as to details: EMSA: 0.25 pmol 3'-biotin DNA, 25°C 2 h, LightShift Chemiluminescent EMSA kit buffer (composition and pH not stated), 6% DNA retardation gel, 0.5x TBE

Series [1] deals with T1, XisF4 (Pseudomonas aeruginosa PAO1), ORF:74e9b1d3.
T1 sequence: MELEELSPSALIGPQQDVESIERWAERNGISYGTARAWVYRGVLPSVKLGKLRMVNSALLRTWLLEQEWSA

Series [2] deals with T2, XisF5 (Pseudomonas aeruginosa PA14) (UniProt A0A0H2Z817).
T2 sequence: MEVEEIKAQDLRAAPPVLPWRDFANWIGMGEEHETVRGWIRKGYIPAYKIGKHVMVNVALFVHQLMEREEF

Series [3] has as its system T3, Pf4r (Pseudomonas aeruginosa PAO1), ORF:4ff4b857.
T3 sequence: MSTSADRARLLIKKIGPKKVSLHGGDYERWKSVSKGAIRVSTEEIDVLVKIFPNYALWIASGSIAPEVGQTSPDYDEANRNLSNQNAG

On to “TCGATTGGGAATTCCTCGCCCCGGTGGCGATGGGCTGGGCGCTGCATCACTGGTGGACGGTGATGACGGCGCTAGCGGCGGTAGGGGTGCCGCCATGAGGGGCGGGCCGCGCCGCCGGCCGGGAGCGCAAGGCATGAGCGATAGGCCGAAGGCGCGGCCGACGCCCCTGTAACACGTCAGATAAGCCACCTATTGCGGTTTCAATTCGTACCAATTTGGATCGTTAAAG (double strand) [P4 (PA0727 promoter)]”, for which the binding result in series [1] was “binds”.
For the sequence “CATTTGTCGCCGGAGTACCTGCGGGACGCTATTCGACTCAACCCGCTGGCGGATTTCGACAGTTCTTCGACACTTGTCGAGACGTCCTAGATTTTTCCTTTGCATATCAATAAGTTATGAGCGCTGATTCGGCTTTGCCGA (double strand) [Pf5 attL]”, in series [2], the binding entry is given as “binds”.
With “CGCGGTAAAGCCTGAAAACAGAAAGCCCCTGGCACTGGTTGGTGTCAGGGGCTTTTGCATTGGGATCTGGAGCGGGCGAAGGGAATCGAACCCTCGTCATGAGCTTGGGAAGCTCAGGTAATGCCATTATACGACGCCCGCTCGGACGGCTTTTGCGGCCAGGGCGCCTTTTTACCAGATGCGCGGC (double strand) [Pf4 attB]”, the binding entry in series [1] is reported as “no binding”.
Regarding “TGCGCTCCGCCCACCGTTCGATGGACTCCACATCCTGTTGCGGCCCTATCAGGGCACTGGGGCTAAGCTCTTCCAGTTCCATGCTCATTCCGTCACTATTCGTGGCATTAGCCATACGCAGCTAGAGAAATAATTACCCTGGAGAAATTATTTCCCCAAAGCCACGTCAGGGCAACTATTTCCCCGGAATAAATTTCTATATGAGCACGTCAGCCGATAGAGCAAGACTATT (double strand) [P1 (xisF4-pf4r intergenic region)]”, the binding result in series [3] and in series [1] was “binds” throughout.
“TTCGCCGGGGTGATCGACACCAGCGCGGTGGAATCGGCGATCACCGATGGCCAGGGCGATATGAAGGCCATTGGCGGCTACATCGTCGGCGCCCTGGTGATCCTGGCCGTTGCCGGCCTGATCTACAGCATGTTGCGCAAGGCGTAACGGGTGCTCTGGTCGGTGTGGTTGGGGGCGTTCTTCGCCGGCGCCTTCATCACCGGGTACCGGACCGGCGAATTCTTCTAACCGAACAGACCGAGGCGGAAGCCCCCTCCGGAGTTTCCGGCAGGGGGCTTTTTTGTGTGGGGTCTTACG (double strand) [P3 (PA0724 promoter)]”: in series [1], the binding entry is reported as “no binding”.
